The values below are quoted from earlier work in publication PMC2871139.

Series [1] has as its target A1 (UniProt Q07440).
In series [2] the target is A1 (UniProt Q07440). The source holds these as a separate data set.
Series [3] deals with A1 (UniProt Q07440). This is another data set of the same source.
Series [4] concerns the target A1 (UniProt Q07440). The source holds these as a separate data set.

Read-outs that look alike come from different tables or passages of the source.

Chain of UniProt Q07440 (Q07440 whole entry): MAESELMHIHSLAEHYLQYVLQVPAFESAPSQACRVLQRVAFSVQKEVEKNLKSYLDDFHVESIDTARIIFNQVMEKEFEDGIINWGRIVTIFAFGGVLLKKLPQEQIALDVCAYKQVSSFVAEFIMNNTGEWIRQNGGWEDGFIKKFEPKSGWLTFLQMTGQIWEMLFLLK

With Bak BH3 (from UniProt O08734), the Kd in series [1] was less than 3 nM.

As to Bid BH3 (from UniProt P70444), in series [2], the equilibrium dissociation constant (Kd) is less than 3 nM.

For Bmf BH3 (from UniProt Q91ZE9), the dissociation constant Kd in series [3] is 180 nM.

For the substance Puma BH3 (from UniProt Q9BXH1), the Kd in series [4] was less than 3 nM.
